Blank lines part the entries; values can stand above or below the substance they belong to.
Columns and labels:
[1] = molecular target: glyceraldehyde-3-phosphate dehydrogenase (GAPDH) of Thermosynechococcus elongatus (Thermosynechococcus elongatus BP-1); assay: cryo-EM structure
[2] = molecular target: glyceraldehyde-3-phosphate dehydrogenase (GAPDH) of Thermosynechococcus elongatus (Thermosynechococcus elongatus BP-1); assay: crystal structure
[3] = molecular target: glyceraldehyde-3-phosphate dehydrogenase (GAPDH) of Thermosynechococcus elongatus (Thermosynechococcus elongatus BP-1); assay: crystal structure; remark: listed apart in the source
[4] = molecular target: phosphoribulokinase (PRK) of Thermosynechococcus elongatus, native (Thermosynechococcus elongatus (endogenous in T. elongatus cells)); assay: cryo-EM structure

stoichiometry N (CP12 per GAPDH tetramer) [1]: 2
stoichiometry N (CP12 per GAPDH tetramer) [2]: 4
stoichiometry N (CP12 per GAPDH tetramer) [3]: 2
Substance: CP12 of Thermosynechococcus elongatus (natural protein)

stoichiometry N [1]: 4
stoichiometry N [3]: 4
Substance: glyceraldehyde-3-phosphate dehydrogenase (GAPDH) of Thermosynechococcus elongatus (enzyme)

stoichiometry N [4]: 2
Substance: phosphoribulokinase (PRK) of Thermosynechococcus elongatus, native (enzyme)

From paper doi:10.1101/414334
